Measurements as given in US9457043B2, “Combination therapy using c-Met inhibitor and c-Myc inhibitor” (Samsung Electronics Co., Ltd., priority 2013, dated 2016).

Tests used:
HCC1954 cells = assay: Cell proliferation (CellTiter Glo) in HCC1954 breast cancer cells; type: cell-based; conditions: L3-1Y/IgG2 0-2 μg/ml, 72 hours after antibody treatment, siRNA reverse transfected 24 hours before, FIG. 1
Description: (§1) To confirm the effect of co-administration in a breast cancer cell on which an anti-c-Met antibody has no effect when administered alone, HCC1954 (ATCC, CRL 2338) cells were used for assaying the effect of co-administration on cell proliferation.
In particular, a mixture of c-Myc siRNAs (sic-Myc; mixture of siRNA pools wherein 5′-[…]-3′ (SEQ ID NO: 119), 5′-[…]-3′ (SEQ ID NO: 120), 5′-[…]-3′ (SEQ ID NO: 121), and 5′-[…]-3′ (SEQ ID NO: 122) are mixed at the molar ratio of 1:1:1:1) was reverse transfected to HCC1954 cells and the transfected cells were incubated in 96-well plate at the amount of 5000 cells/well (medium: 10% FBS in RPMI 1640 (GIBCO), incubation temperature: 37° C.). The reverse transfection was conducted using lipofectamine RNAi max (invitrogen). The reverse transfection was conducted by pre-incubating 10˜20 uM of siRNA diluted in opti-MEM (Gibco) and lipofectamine RNAi max diluted in opti-MEM (Gibco) at room temperature for 15 minutes, and then mixing with 5000 cells/well of the incubated cells, to allow reverse transfection. 24 hours after, the prepared cells were treated with L3-1Y/IgG2. […] The number of the cells was counted through luminescence signal, and the luminescence signal was recorded using Envision 2104 Multi-label Reader (Perkin Elmer). […]

LoVo cells = assay: Cell proliferation (CellTiter Glo) in LoVo colon cancer cells; type: cell-based; conditions: L3-1Y/IgG2 0-2 μg/ml, 72 hours, FIG. 5
Description: as §1, with “colon” for “breast”, “HT-29” for “HCC1954”, “HTB-38), Ls174T (ATCC, CCL-188), SW620 (ATCC, CCL-227), and LoVo (ATCC, CCL-229)” for “CRL 2338)”
(§2) In particular, a mixture of c-Myc siRNAs (sic-Myc; mixture of siRNA pools wherein 5′-[…]-3′ (SEQ ID NO: 119), 5′-[…]-3′ (SEQ ID NO: 120), 5′-[…]-3′ (SEQ ID NO: 121), and 5′-[…]-3′ (SEQ ID NO: 122) are mixed at the molar ratio of 1:1:1:1) was reverse transfected to each of HT-29, Ls174T, SW620, and LoVo cells and each transfected cells were incubated in 96-well plate at the amount of 5000 cells/well (medium: 10% FBS in RPMI 1640 (GIBCO), incubation temperature: 37° C.). The reverse transfection was conducted using lipofectamine RNAi max (invitrogen). The reverse transfection was conducted by pre-incubating 10˜20 uM of siRNA diluted in opti-MEM (Gibco) and lipofectamine RNAi max diluted in opti-MEM (Gibco) at room temperature for 15 minutes, and then mixing with 5000 cells/well of the incubated cells, to allow reverse transfection. 24 hours after, the prepared cells were treated with L3-1Y/IgG2. […] The number of the cells was counted through luminescence signal, and the luminescence signal was recorded using Envision 2104 Multi-label Reader (Perkin Elmer). […]

HT-29 cells = assay: Cell proliferation (CellTiter Glo) in HT-29 colon cancer cells; type: cell-based; conditions: L3-1Y/IgG2 0-2 μg/ml, 72 hours, FIG. 2
Description: as §1, with “colon” for “breast”, “HT-29” for “HCC1954”, “HTB-38), Ls174T (ATCC, CCL-188), SW620 (ATCC, CCL-227), and LoVo (ATCC, CCL-229)” for “CRL 2338)”
as §2

c-Myc = c-Myc expression level by western blotting in HT-29 cells; type: cell-based; conditions: 1 μg/ml L3-1Y/IgG2 for 24 hours, western blot, beta-actin control, FIG. 7
Protocol: To reveal the causes of acquirement of effect by co-treatment of an anti-c-Met antibody and c-Myc siRNA on colon cancer cell on which the antibody solely has no effect, the expression level of c-Myc in HT29 (ATCC, HTB-38) treated with an anti-c-Met antibody was measured.
In particular, 20000 cells of HT-29 cell was incubated in 60 mm plate (medium: 10% FBS in RPMI 1640 (GIBCO), incubation temperature: 37° C.). 24 hours after, 1 μg/ml of L3-1Y/IgG2 was treated thereto. 24 hours after, the cells were lysed using Lysis buffer (Roche), thereby obtaining proteins. The concentration of the obtained proteins was measured, and 20 ug of each protein was loaded and subjected to western blotting. The expression amount of c-Myc was detected using c-Myc antibody (Santa-Cruz). A group which is not treated with L3-1Y/IgG2 was used as a control, and the expression amount of beta-actin was used as a control of expression amount of proteins.

SW620 cells = assay: Cell proliferation (CellTiter Glo) in SW620 colon cancer cells; type: cell-based; conditions: L3-1Y/IgG2 0-2 μg/ml, 72 hours, FIG. 4
Description: as §1, with “colon” for “breast”, “HT-29” for “HCC1954”, “HTB-38), Ls174T (ATCC, CCL-188), SW620 (ATCC, CCL-227), and LoVo (ATCC, CCL-229)” for “CRL 2338)”
as §2

Ls174T cells = assay: Cell proliferation (CellTiter Glo) in Ls174T colon cancer cells; type: cell-based; conditions: L3-1Y/IgG2 0-2 μg/ml, 72 hours, FIG. 3
Description: as §1, with “colon” for “breast”, “HT-29” for “HCC1954”, “HTB-38), Ls174T (ATCC, CCL-188), SW620 (ATCC, CCL-227), and LoVo (ATCC, CCL-229)” for “CRL 2338)”
as §2

c-Met = c-Met (Homo sapiens, UniProt P08581); assay: Specificity of expressed scFv to c-Met; type: binding; conditions: scFv product after expression
Chain of c-Met (P08581 25-1390): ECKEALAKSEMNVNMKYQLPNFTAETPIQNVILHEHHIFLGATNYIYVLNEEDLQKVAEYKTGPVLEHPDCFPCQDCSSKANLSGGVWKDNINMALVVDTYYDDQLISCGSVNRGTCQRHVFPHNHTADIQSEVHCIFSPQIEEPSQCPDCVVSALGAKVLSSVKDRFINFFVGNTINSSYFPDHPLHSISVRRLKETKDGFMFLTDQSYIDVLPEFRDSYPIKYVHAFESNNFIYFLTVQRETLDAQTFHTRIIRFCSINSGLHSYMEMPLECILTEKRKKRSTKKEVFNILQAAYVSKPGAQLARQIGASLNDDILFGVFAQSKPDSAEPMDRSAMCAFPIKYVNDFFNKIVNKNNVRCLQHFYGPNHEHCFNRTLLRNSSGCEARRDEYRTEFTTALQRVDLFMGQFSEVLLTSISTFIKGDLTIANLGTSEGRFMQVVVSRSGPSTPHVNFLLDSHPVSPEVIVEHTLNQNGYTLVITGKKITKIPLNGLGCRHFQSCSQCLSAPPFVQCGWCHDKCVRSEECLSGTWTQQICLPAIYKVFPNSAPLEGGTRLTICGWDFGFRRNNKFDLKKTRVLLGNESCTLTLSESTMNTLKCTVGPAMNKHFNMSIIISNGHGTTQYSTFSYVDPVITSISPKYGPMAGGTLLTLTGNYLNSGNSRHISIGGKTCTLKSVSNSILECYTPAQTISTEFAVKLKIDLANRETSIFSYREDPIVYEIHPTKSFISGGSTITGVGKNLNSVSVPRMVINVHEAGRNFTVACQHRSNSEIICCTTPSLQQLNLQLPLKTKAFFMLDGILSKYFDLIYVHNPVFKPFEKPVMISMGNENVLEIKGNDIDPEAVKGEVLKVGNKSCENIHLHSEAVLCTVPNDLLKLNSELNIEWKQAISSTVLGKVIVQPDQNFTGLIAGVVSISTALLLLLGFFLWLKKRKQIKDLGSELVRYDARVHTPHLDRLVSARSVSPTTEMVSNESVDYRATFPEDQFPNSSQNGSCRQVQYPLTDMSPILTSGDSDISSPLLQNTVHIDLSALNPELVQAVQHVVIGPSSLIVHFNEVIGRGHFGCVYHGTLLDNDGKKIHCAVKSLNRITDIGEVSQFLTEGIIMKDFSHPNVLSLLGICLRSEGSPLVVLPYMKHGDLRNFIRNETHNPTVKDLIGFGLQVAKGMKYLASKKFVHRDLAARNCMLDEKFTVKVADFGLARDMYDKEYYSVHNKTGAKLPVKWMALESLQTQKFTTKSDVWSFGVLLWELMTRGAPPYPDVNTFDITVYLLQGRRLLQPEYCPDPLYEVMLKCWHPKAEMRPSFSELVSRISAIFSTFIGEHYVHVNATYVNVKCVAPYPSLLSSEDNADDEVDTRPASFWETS
Description: For use in constructing an scFv of the huAbF46 antibody from the heavy and light chain variable regions of the huAbF46 antibody, a gene was designed to have the structure of “VH-linker-VL” for each of the heavy and the light chain variable region, with the linker including the amino acid sequence “[…]” (SEQ ID NO: 54). A polynucleotide sequence (SEQ ID NO: 55) coding for the designed scFv of huAbF46 was synthesized in Bioneer and an expression vector for the polynucleotide had the nucleotide sequence of SEQ ID NO: 56.

Row | Molecule | cell proliferation inhibition effect (HCC1954 cells) | cell proliferation inhibition effect (LoVo cells) | cell proliferation inhibition effect (HT-29 cells) | amount of c-Myc (expression) (c-Myc) | cell proliferation inhibition effect (SW620 cells) | cell proliferation inhibition effect (Ls174T cells) | specificity to c-Met (c-Met)
1 | L3-1Y/IgG2: anti-c-Met antibody: huAbF46-H4-A1 heavy chain variable region, human IgG2 hinge and constant region, kappa light chain with tyrosine at position 36 (antibody) heavy: EVQLVESGGGLVQPGGSLRLSCAASGFTFTDYYMSWVRQAPGKGLEWLGFIRNKANGYTTEYSASVKGRFTISRDNSKNTLYLQMNSLRAEDTAVYYCARDNWFAYWGQGTLVTVSSASTKGPSVFPLAPCSRSTSESTAALGCLVKDYFPEPVTVSWNSGALTSGVHTFPAVLQSSGLYSLSSVVTVPSSNFGTQTYTCNVDHKPSNTKVDKTVERKCCVECPPCPAPPVAGPSVFLFPPKPKDTLMISRTPEVTCVVVDVSHEDPEVQFNWYVDGVEVHNAKTKPREEQFNSTFRVVSVLTVVHQDWLNGKEYKCKVSNKGLPAPIEKTISKTKGQPREPQVYTLPPSREEMTKNQVSLTCLVKGFYPSDIAVEWESNGQPENNYKTTPPMLDSDGSFFLYSKLTVDKSRWQQGNVFSCSVMHEALHNHYTQKSLSLSPGK light: DIQMTQSPSSLSASVGDRVTITCKSSQSLLASGNQNNYLAWYQQKPGKAPKMLIIWASTRVSGVPSRFSGSGSGTDFTLTISSLQPEDFATYYCQQSYSRPYTFGQGTKVEIKRTVAAPSVFIFPPSDEQLKSGTASVVCLLNNFYPREAKVQWKVDNALQSGNSQESVTEQDSKDSTYSLSSTLTLSKADYEKHKVYACEVTHQGLSSPVTKSFNRGEC | no cell proliferation inhibition effect is observed | no cell proliferation inhibition effect is observed | no cell proliferation inhibition effect is observed | increased amount of c-Myc | no cell proliferation inhibition effect is observed | no cell proliferation inhibition effect is observed | –
2 | scFv of huAbF46: VH-linker-VL single-chain Fv of huAbF46 with linker SEQ ID NO: 54 (protein) scFv: EVQLVESGGGLVQPGGSLRLSCAASGFTFTDYYMSWVRQAPGKGLEWLGFIRNKANGYTTEYSASVKGRFTISRDNSKNTLYLQMNSLRAEDTAVYYCARDNWFAYWGQGTLVTVSSGLGGLGGGGSGGGGSGGSSGVGSDIQMTQSPSSLSASVGDRVTITCKSSQSLLASGNQNNYLAWHQQKPGKAPKMLIIWASTRVSGVPSRFSGSGSGTDFTLTISSLQPEDFATYYCQQSYSAPLTFGQGTKVEIKR | – | – | – | – | – | – | exhibit specificity to c-Met
